# Substitutions are numbered along the chain they refer to. pKd: −log10 of the molar value.
# Key:
# [1] = target: T1, BT4663-RRAD C1174A;H1175D (Bacteroides thetaiotaomicron VPI 5482) (UniProt Q89YR8); assay: EMSA; conditions: 50 mM Tris pH 7.6, 200 mM NaCl, 2.5% glycerol, 2 mM MgCl2, 0.5 mM DTT, 0.1 ug/uL BSA, 10 ng/uL salmon sperm DNA, ~2.5 ng/uL DNA; 30 min, temperature not …
# T1 sequence: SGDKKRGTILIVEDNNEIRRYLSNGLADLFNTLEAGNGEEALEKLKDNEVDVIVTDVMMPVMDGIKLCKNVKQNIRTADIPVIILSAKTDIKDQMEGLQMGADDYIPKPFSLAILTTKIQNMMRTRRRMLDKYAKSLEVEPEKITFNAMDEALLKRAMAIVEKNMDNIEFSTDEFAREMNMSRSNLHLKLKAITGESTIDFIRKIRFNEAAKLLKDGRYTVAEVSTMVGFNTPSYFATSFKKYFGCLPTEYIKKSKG
# [2] = target: T2, BT4663-RRAG C1174A;H1175G (Bacteroides thetaiotaomicron VPI 5482) (UniProt Q89YR8); assay: EMSA; conditions: 50 mM Tris pH 7.6, 200 mM NaCl, 2.5% glycerol, 2 mM MgCl2, 0.5 mM DTT, 0.1 ug/uL BSA, 10 ng/uL salmon sperm DNA, ~2.5 ng/uL DNA; 30 min, temperature not …
# T2 sequence: T1 sequence with D79G
sequence,measurement,setting,value
GATGGTAGTGTGGGGTCTCATGCCTAGGATACAGGAGATAAACAGCTTTTTTAAACAAAAACAACATATGTCTCAACAAATTTGATATCAAAAAAATCATTTTTGAACAAAGTATGAACAACCTAAATTAAAGAATCTAATTAATGAGGTTACATTTGCAACAGTAAAATAACACTTTTAATAATTATAAAACCTAATAAAGTATGAAGAACGAGACCGAAATTCAATAAGGAGG (double strand) [bt4662 promoter fragment],pKd,[1],6.05
same,pKd,[2],6.05

# Reference: article PMC11253607, “A conserved inhibitory interdomain interaction regulates DNA-binding activities of hybrid two-component systems in Bacteroides” (mBio, 2024)
